Source: patent US9416162B2, “Peptides having reduced toxicity that stimulate cholesterol efflux” (The Regents of the University of California, priority 2013, dated 2016)
Non-standard residues stand in square brackets, D forms with d. No end group written: not given here. Cit = NC(=O)NCCC[C@H](N)C(=O)O

Key:
Wistar rats = experiment: High-dose IV toxicity of ATI-5261 in rats (plasma ALT, AST, TG, unesterified cholesterol); format: in vivo, rat
Protocol: (§1) Peptides or peptidomimetics of the invention can be evaluated for toxicity using known assays. Examples of such assays are illustrated in the Examples section. Toxicity is typically assayed in a rat, rabbit, mouse, monkey or dog model. In an illustrative assay, such as that described in Example 1, a peptide is administered intravenously using a rabbit or rat model at doses of 3, 30, and 300 mg/kg and vehicle alone is also administered at 48 hour intervals for a total of four injections. Safety chemistry panels including plasma alanine aminotransferase (ALT), aspartate amino transferase (AST), and creatine kinase (CK) can then be determined in the blood. The presence of elevated levels of these enzymes in the blood compared to control normal values is indicative of toxicity. A peptide of the invention is typically considered to be non-toxic or to have little toxicity, when the results using the highest dose, 300 mg/kg in this illustrative assay, are equivalent (fall within the standard deviation) of the values measured for the control animals that received vehicle alone, or are no more than 2 or 3 times background obtained with vehicle alone. In some embodiments, a toxicity assay is performed where the toxicity of a peptide of the invention is compared to that to ATI-5261. […]
(§2) Cytotoxicity of an HDL mimetic peptide ATI-5261 at high doses was evaluated in rats and rabbits (FIG. 1). […]

[1] = system: New Zealand White rabbits; experiment: High-dose IV bolus toxicity of ATI-5261 in rabbits (plasma ALT, AST, TG, unesterified cholesterol); format: in vivo, rabbit; settings: male New Zealand White rabbits, single IV bolus 3, 30 or 300 mg/kg
From the text: as §1, with “In an illustrative assay, such as that described in Example 1, a peptide is administered intravenously using a rabbit or rat model at doses of 3, 30, and 300 mg/kg and vehicle alone is also administered at 48 hour intervals for a total of four injections.” left out, “alone.” for “alone. In some embodiments, a toxicity assay is performed where the toxicity of a peptide of the invention is compared to that to ATI-5261.”
as §2
For the experiments in FIG. 2, male chow-fed Wistar rats (Panels A and B) were administered ATI-5261 at doses of 3, 30, and 300 mg/kg as described in FIG. 1. Plasma triglyceride (TG, Panel A) and unesterified cholesterol (Panel B) concentrations were determined enzymatically at the times indicated. […]

C57Bl/6 mice = experiment: Safety and TG elevating effects after IP injection in C57Bl/6 mice (plasma CPK, ALT, AST, lipids); format: in vivo
Protocol: The high-dose cytotoxic response of ATI-5261 observed in rat, rabbit and cynomolgus monkey is additionally recapitulated in mice (FIG. 4). Male chow-fed C57bl/6 mice were injected intraperitonelly (IP) with 30 or 300 mg/kg of lipid-fee ATI-5261. Blood was collected via the retro-orbital plexus 4 h after peptide injection and plasma subsequently obtained for measurement of CPK (Panel A) and ALT and AST activities (Panel B, ALT left bars; AST, right bars). Values are means±SD, n=4 mice per group.
This example illustrates that aromatic phenylalanine residues associated with the non-polar surface of ATI-5261 contributed to the majority of the peptide toxicity (FIG. 5). […] Blood was collected via retro-orbital plexus 4 h after injection for isolation of plasma. Levels of plasma CPK (Panel A), ALT (panel B) and AST (Panel C) were determined as described in FIG. 1. Values are means±SD, n=4 mice per group.
All values (mg/dl) are means±SD, n=4, determined at 4 and 6 h post treatment with peptide.

HDL in human plasma = experiment: preβ HDL formation in human plasma, 2D NDGGE and western blot
Protocol: To test whether CS6253 exerts anti-atherogenic effects in a biological milieu, human plasma was exposed (5 min) to lipid-free peptide. Interactions of CS6253 with HDL and activity of plasma to stimulate cholesterol efflux was assessed, using J774 macrophages labeled with [^3H]cholesterol. Panel A—Cholesterol efflux activity of plasma treated with lipid-free peptides. Human plasma was incubated with 300 μg/ml peptides for 5 minutes (4° C.), diluted to 1% in serum-free RPMI-1640 culture medium and immediately added to [^3H]cholesterol-labeled J774 cells. […] Panel B—Induction of preβ HDL upon treatment of human plasma with CS6253. Plasma was exposed to a small amount of peptide relative to endogenous apoA-I (1:10 mole ratio, respectively) and formation of preβ HDL assessed by 2D non-denaturing gradient gel electrophoresis (NDGGE) and western blot analysis. […] This is consistent with no peptide being associated with the preβ HDL fraction, indicating the particles were authentic preβ particles composed on endogenous apoA-I.

hamsters = experiment: Lipoprotein profile in hamsters after sc injection (ion mobility, 2D gel); format: in vivo, hamster
Protocol: This example employed peptide T5237-4 EVCit[…]it[…] (SEQ ID NO:2) (Cit=citrulline). […] Following removal of albumin by centrifugations plasma was injected and lipoproteins separated with gas-phase differential electrophoretic macromolecular mobility-based method (ion mobility, or IM) (Caulfield et al. Clin Chem 2008 54:8 1307-16). […] The panel in the upper right hand corner is derived from a 2D gel separation (size and charge separation).

[2] = hamsters, 10, 30 and 100 mg/kg sc, plasma 4 h, dose-response

Substance	plasma triglycerides and cholesterol (Wistar rats; male Wistar rats, IV 3, 30, 300 mg/kg)	cytotoxic response (plasma ALT and AST) (Wistar rats; male chow-fed Wistar rats, IV 3, 30 and 300 mg/kg at 48 h intervals, 4 injections)	cytotoxic response (plasma ALT and AST) [1]	plasma triglycerides and cholesterol [1]	plasma TG, total and unesterified (free) cholesterol (FC) (C57Bl/6 mice; C57Bl/6 mice, 300 mg/kg, 4 and 6 h post treatment)	cytotoxic/toxic response (plasma CPK, ALT, AST) (C57Bl/6 mice; male chow-fed C57Bl/6 mice, IP 300 mg/kg, plasma 4 h after injection)	association of peptide with HDL species in plasma (HDL in human plasma; antibody against CS6253)	preβ HDL formation (HDL in human plasma; peptide:endogenous apoA-I 1:10 mole ratio, apoA-I antibody)	preβ-HDL (2D gel, apoA-I antibody) (hamsters; hamsters, 100 mg/kg sc, 1 h, 2 h, and 4 h)	LDL (hamsters; [2])	small HDL (hamsters; [2])
ATI-5261: HDL mimetic peptide, parent peptide; triglyceride elevating and muscle toxic peptide used as positive control (EVRSKLEEWFAAFREFAEEFLARLKS) [reference compound]	increased plasma triglycerides and cholesterol	induced a cytotoxic response	induced a cytotoxic response	increased plasma triglycerides and cholesterol	marked increase	High levels of cytotoxic markers	–	–	–	–	–
EVCitSKLEEWLAALCitELAEELLARLKS (SEQ ID NO:2) (EV[Cit]SKLEEWLAAL[Cit]ELAEELLARLKS) [CS6253, citrulline form of LeuATI-5261, R3,14→Citrulline, 26-mer]	–	–	–	–	–	–	associated with α-HDL	increase in preβ HDL	preβ-HDL increase	LDL lowering	small HDL increase
